From publication PMC8539749 (Viruses, 2021) come the findings set out here.

The target of this experiment is Recombinant Gn (residues 21–452) of the SFTSV membrane glycoprotein polyprotein (severe fever with thrombocytopenia syndrome virus). Nature of the experiment: ELISA. (An ELISA detects its analyte on a solid surface through an enzyme-linked reagent.)

Values joined by “and” are separate entries in the source; they are usually repeats but may differ in a detail not shown here. Equal values may be shown once. No end group written: not given here.

On to KKRGFGS (not fully specified) [Biotinylated HKU-P1], for which the binding affinity amounted to 700 µg/mL; the signal over background at 250 µg/mL (fold) is 2 fold and 3 fold.
